The values that follow come from paper doi:10.1101/2021.04.16.440242.

For the assay, the target named is T1, wild-type CHIP (carboxyl terminus of Hsc70-interacting protein) (human), Q9UNE7.
T1 chain: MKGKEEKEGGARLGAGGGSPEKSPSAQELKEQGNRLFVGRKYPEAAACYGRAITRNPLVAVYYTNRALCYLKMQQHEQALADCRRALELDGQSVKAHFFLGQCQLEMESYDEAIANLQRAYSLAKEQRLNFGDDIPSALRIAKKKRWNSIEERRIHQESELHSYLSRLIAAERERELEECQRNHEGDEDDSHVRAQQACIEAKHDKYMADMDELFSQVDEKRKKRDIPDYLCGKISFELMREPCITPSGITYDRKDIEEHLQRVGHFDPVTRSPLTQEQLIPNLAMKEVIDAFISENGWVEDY
The assay can be described thus: SEC. Conditions: remark: other sources report otherwise.

B1: wild-type CHIP (carboxyl terminus of Hsc70-interacting protein), Q9UNE7 1-303 (enzyme)
chain: MKGKEEKEGGARLGAGGGSPEKSPSAQELKEQGNRLFVGRKYPEAAACYGRAITRNPLVAVYYTNRALCYLKMQQHEQALADCRRALELDGQSVKAHFFLGQCQLEMESYDEAIANLQRAYSLAKEQRLNFGDDIPSALRIAKKKRWNSIEERRIHQESELHSYLSRLIAAERERELEECQRNHEGDEDDSHVRAQQACIEAKHDKYMADMDELFSQVDEKRKKRDIPDYLCGKISFELMREPCITPSGITYDRKDIEEHLQRVGHFDPVTRSPLTQEQLIPNLAMKEVIDAFISENGWVEDY
The stoichiometry N is the number of molecules, sites or subunits per partner or assembly. The molecule B1 had a stoichiometry N of 2.
